Values of other authors in PMC9523730.

Target: 14-3-3ζ (Homo sapiens) (UniProt P63104)
Assay: various biophysical approaches

Kd: 5 nM
Substance: 14-3-3ζ (from UniProt P63104)
